Measurements: patent US20180362628A1 (KYMAB, published 2018)

Tests used:
[1] = biological target: T1, full CSP protein (analyte of Example 12) (Plasmodium falciparum (isolate 3D7), UniProt Q7K740 19-374); experiment: SPR, IgG1 from supernatant on anti-human IgG surface, CSP as analyte, 25 C, 1:1 fit
T1 construct: not shown: C-terminal tags

[2] = biological target: T2, Recombinant CSP (Wellcome Trust Sanger Institute, FIG. 22), CSP ectodomain with BirA biotinylation tag, … (Plasmodium falciparum strain 3D7, UniProt Q7K740 19-376, biotinylated at the BirA substrate peptide); experiment: SPR (ProteOn), biotinylated CSP on NLC chip, Fab as analyte, 25 C, 1:1 fit
T2 construct: extracellular domain; Expressed in HEK293, 45 kDa; order of the tags is that of the legend, not confirmed; also called biotinylated recombinant CSP

| Binder | kon [1] | also measured |
| --- | --- | --- |
| CL-141766 (antibody, V domains shown, human IgG1, HEK (Expi293F) culture supernatant) VH: QVQLVQSGAEVKKPGASVKVSCKASGYTFTSYAMHWVRQAPGQRLEWMGWINAGNGNTKYSQKFQGGVTITRDTSASTAYMELSSLRSEDTAVYYCARDNYYDSGSYYDYYYYGMDVWGQGTTVTVSS VL: QSALTQPASVSGSPGQSITFSCTGTSSDVGSYNHVSWYQQHPGKAPKLMIYDVSKRPSGVSNRFSGSKSGNTASLTISGLQAEDEADYYCCSYAGSSTWVFGGGTKLTVL | 528000 M⁻¹ s⁻¹ |  |
| Antibody 666 Fab (Fab, V domains shown, recombinant human Fab from CHO-3E7 cells, purified on nickel columns) VH: QVQLVQSGAEVKKPGASVKVSCKASGYTFTNYAMHWVRQAPGQRLEWMGWINAGNGNTKYSQNFQGRVTITRDTSASTAYMELSSLRSEDTAVYYCARDEYYASGSYYDYYYYGMDVWGQGTTVTVTS VL: QSALTQPASVSGSPGQSITISCTGTSSDVGVYNYVSWFQQHPGKAPKLMIYNVSKRPSGVSNRFSGSKSGNTASLTISGLQAEDEADYYCCSYAGSSTWVFGGGTNLTVL |  | Kd [2]: 52 nM; koff [2]: 0.00249 s⁻¹; kon [2]: 48000 M⁻¹ s⁻¹ |
| CL-141805 (antibody, V domains shown, human IgG1, HEK (Expi293F) culture supernatant) VH: QVQLVQSGAEVKKPGASVKVSCKASGYTFTNYAMHWVRQAPGQRLEWMGWINAGNGNTKYSQNFQGRVTITRDTSASTAYMELSSLRSEDTAVYYCARDEYYASGSYYDYYYYGMDVWGQGTTVTVTS VL: QSALTQPASVSGSPGQSITISCTGTSSDVGVYNYVSWFQQHPGKAPKLMIYNVSKRPSGVSNRFSGSKSGNTASLTISGLQAEDEADYYCCSYAGSSTWVFGGGTNLTVL | 1.19e+06 M⁻¹ s⁻¹ |  |
| CL-141806 (antibody, V domains shown, human IgG1, HEK (Expi293F) culture supernatant) VH: QVQLVQSGAEVKKPGASVKVSCKASGYTFTNYAIHWVRQAPGQRLEWMGWINAGNGNTKYSQKFQGRVTITRDTSASTAYMELSSLRSEDTAVYYCARDNFYGSGTYFSYFFYHMDVWGQGTTVTVSS VL: QSALTQPASVSGSPGQSITISCTGTSSDVGSYNHVSWYQQHPGKAPKLMIYDVSKRPSGMSDRFSGSKSGNTASLTISGLQAEDEADYYCCSYAGSSTWVFGGGTKLTVL | 284000 M⁻¹ s⁻¹ |  |
| CL-141799 (antibody, V domains shown, human IgG1, HEK (Expi293F) culture supernatant) VH: QVQLVQSGAEVKKPGASVKVSCKASGFTFTDYAMHWVRQAPGQRLEWMGWINAGNGYTKYSQKFQDRLTITRDTFASTVYMELSSLRSEDTTVYYCARDGFCPSNTCSGYYGMDVWGQGTTVTVSS VL: QSALTQPASVSGSPGQSITISCTGTSSDVGAYKYVSWYQQHPGKAPKLMIYDVNTRPSGVSTRFSASKSGNTASLTVSGLQAEDEAVYYCSSYAGSSTWVFGGGTKLTVL | 486000 M⁻¹ s⁻¹ |  |
| CL-141802 (antibody, V domains shown, human IgG1, HEK (Expi293F) culture supernatant) VH: QVQLVQSGTEVKKPGASVKVSCKASGFTFSSYAMHWVRQAPGQRLEWMGWINAGNGNTKYSQKFQGRVTITRDTSASTAYMELSSLRSEDTAVYYCARDGYCSSTSCYGYYGMDVWGQGTTVTVSS VL: QSALTQPASVSGSPGQSITISCTGTSSDVGAYNYVSWYQQHPGKAPKLMISDVSKRPSGVSNRFSGSKSDNTASLTVSGLQAEDEAVYYCCSYAGSSTWVFGGGTKLTVL | 313000 M⁻¹ s⁻¹ |  |
| CL-141792 (antibody, V domains shown, human IgG1, HEK (Expi293F) culture supernatant) VH: QVQLVQSGAEVKKPGASVKVSCKASGYTFTSYAMHWVRQAPGQRLEWMGWINAGNGYTKYSQNFQGRVTITRDTSASTAYMELSSLRSEDTAVYYCARDNYFDSSVYDSSYYFYYGMDVWGQGTTVTVSS VL: QSALTQPASVSGSPGQSITISCTGTSSDVGSYNHVSWYQQHPGKAPKLMIYDVSKRPSGVSNRFSGSKSGNTASLTISGLQAEDEADYYCCSYAGSSTWVFGGGTKLTVL | 51300 M⁻¹ s⁻¹ |  |
| CL-141791 (antibody, V domains shown, human IgG1, HEK (Expi293F) culture supernatant) VH: QVQLVQSGAEVKKPGASVKVSCRASGYTFTNYAMHWVRQAPGQRLEWMGWINAGNGYTKYSQKFQDRVTITRDTSATTAHMELSSLRSEDTAMYYCARDSFYDILTGPVYHYYGMDVWGQGTTVTVSS VL: QSALTQPDSVSGSPGQSITISCTGTSNDVGVYNHVSWYQQHPGKAPKLMIYDVSKRPSGVSNRFSGSKSGNTASLTISGLQAEDEADYYCCSYVGSSAWVFGGGTNLTVL | 253000 M⁻¹ s⁻¹ |  |
| CL-141769 (antibody, V domains shown, human IgG1, HEK (Expi293F) culture supernatant) VH: QVQLVQSGAEVKKPGASVKVSCRASGYTFTNYAMHWVRQAPGQRLEWMGWINAGNGYTKYSQKFQDRFTITRDTSATTAYMELSSLRSEDTAVYYCARDSFYDILTGPVYHYYGMDVWGQGTTVTVSS VL: QSALTQPDSVSGSPGQSITISCTGTSNDVGVYNHVSWYQQHPGKAPKLMIYDVSKRPSGVSNRFSGSKSGNTASLTISGLQAEDESDYYCCSYAGSSTWVFGGGTKLTVL | 156000 M⁻¹ s⁻¹ |  |
| CL-141781 (antibody, V domains shown, human IgG1, HEK (Expi293F) culture supernatant) VH: QVQLVQSGAEVKKPGASVKVSCRASGYTFSNYAMHWVRQAPGQRLEWMGWINAGNGYTKYSQKFQDRVTITRDTSATTAYMELSSLRSEDTAMYYCSRDSFYDILTGPVYHYYGMDVWGQGTTVTVSS VL: QSALTQPDSVSGSPGQSITISCTGTSNDVGVYNHVSWYQQHPGKAPKLMIYDVSKRPSGVSNRFSGSKSGNTASLTISGLQAEDEADYYCCSYVGNSAWVFGGGTKLTVL | 221000 M⁻¹ s⁻¹ |  |
| CL-141772 (antibody, V domains shown, human IgG1, HEK (Expi293F) culture supernatant) VH: QVQLVQSGAEVKKPGASVKVSCKASGFIFINYAMQWVRQAPGQRLEWMGWINAGNGYTKYSQKFQGRVTITRDISANTVYMELSSLRSEDTAVYYCARDGFCSTTTCSDHYGMDVWGQGTTVTVSS VL: QSALTQPASVSGSPGQSITISCTGTSSDVGGYNYVSWYQQHPGKAPKLMIYDVSKRPSGVSDRFSGSKSGNTASLTISGLQTEDEADYYCCSYAGSSTWVFGGGTKLTVL | 338000 M⁻¹ s⁻¹ |  |
| CL-141785 (antibody, V domains shown, human IgG1, HEK (Expi293F) culture supernatant) VH: QVQLVQSGAEVKKPGASVRVSCKASGFTFISYAMHWVRQAPGQGLEWMGWINAGDGHTKYSQKFQDRVAITRDTSATTVYMDLSSLRSEDTAVYYCSRDGFCTTTTCSDHYGMDVWGQGTTVTVSS VL: QSALTQPASVSGSPGQSITISCTGTSSDVGSYNYVSWYQQHPGKAPKFMIYDVSKRPSGVSDRFSGSKSGNTASLTISGLQAEDEADYYCCSYAGSSTWVFGGGTKLTVL | 573000 M⁻¹ s⁻¹ |  |
| CL-141776 (antibody, V domains shown, human IgG1, HEK (Expi293F) culture supernatant) VH: QVQLVQSGAEVKNPGASVKVSCKASGFTFTNYAMHWVRQAPGQRLEWMGWINAGNGHTKYSQKFQDRVAITRDTSATTAYMELSSLRSEDTAVYYCSRDGFCSTTTCSDHYGMDVWGQGTTVTVSS VL: QSALTQPASVSGSPGQSITISCTGTSSDVGGYNYVSWYQQHPGKAPKFMIYDVSKRPSGVSNRFSGSKSGNTASLTISGLQAEDEADYYCCSYAGSSTWVFGGGTKLTVL | 143000 M⁻¹ s⁻¹ |  |
| CL-141789 (antibody, V domains shown, human IgG1, HEK (Expi293F) culture supernatant) VH: QVQLVQSGAEVKKPGASVRVSCKTSGFTFTSYAIQWVRQAPGQGLEWMGWINAGDGHTKYSQKFQDRVVITRDTSATTVYMDLSSLRSEDTAVYYCTRDGFCTTTTCSDHYGMDVWGQGTTVTVSS VL: QSALTQPASVSGSPGQSITISCTGTSSDVGSYNYVSWYQQHPGKVPKFMISDVSKRPSGISDRFSGSKSGNTASLTISGLQAEDEADYYCCSYAGGSTWVFGGGTKLTVL | 293000 M⁻¹ s⁻¹ |  |
| CL-141779 (antibody, V domains shown, human IgG1, HEK (Expi293F) culture supernatant) VH: QVQLVQSGAEVKKPGASVKVSCKASGYTFTSYAMHWVRQAPGQRLEWMGWINAGNGNTKYSQKFQGRVTITRDTSASTAYMELSSLRSEDTAVYYCARDQYYDILTPYYYYYYGMDVWGQGTTVTVSS VL: QSALTQPASVSGSPGQSITISCTGTSSDVGGYNYVSWYQQHPGKAPKLMIYVVSKRPSGVSNRFSGSKSGNTASLTISGLQAEDEADYYCCSYAGSSTWVFGGGTKLTVL | 298000 M⁻¹ s⁻¹ |  |
| CL-141783 (antibody, V domains shown, human IgG1, HEK (Expi293F) culture supernatant) VH: QVQLVQSGAEVKKPGASVKLSCKASGYTFTNYAMHWVRQAPGQSLEWMGWINAGNGYTKYSQKFQGRVTITRDTSANTAYMDLSSLRSEDTAVYYCARDQYYDILKGYYNVDYYYGMDVWGQGTTVAVSS VL: QSALTQPASVSGSPGQSITISCTGTSSDVGSYNHVSWYQQHPGKAPKLMIYDVSKRPSGVSDRFSGSKSGNTASLTISGLQAEDEADYYCCSYVGSSTWVFGGGTKLTVL | 128000 M⁻¹ s⁻¹ |  |
| CL-141784 (antibody, V domains shown, human IgG1, HEK (Expi293F) culture supernatant) VH: QVQLVQSGAEVKNPGASLKVSCKASGYTFTNYAMHWVRQAPGQRLEWMGWINAGNGYTKYSQTFQGRVTITRDTYASTAYMELSSLRSEDTAVYYCVRDEYYESGSSNYYYYGMDVWGQGTTVTVSS VL: QSALTQPASVSGSPGQSITISCTGTSSDVGSYNHVSWYQQHPGKAPKLMIYDVSTRPSGVSNRFSGSKSGNTASLTISGLQAEDEADYYCCSYAGSSTWVFGGGTKMTVL | 541000 M⁻¹ s⁻¹ |  |
| CL-141786 (antibody, V domains shown, human IgG1, HEK (Expi293F) culture supernatant) VH: QVQLLQSGAEVKKPGASVKVSCKASGYTFTNYAMHWLRQAPGQRLEWMGWINAGNGYTKYSQKFQGRVTITRDTSATTAYMDLSSLRSEDTAVYYCARDNYYDSNVYNSYYFYGMDVWGQGTTVTVSS VL: QSVLTQPASVSGPPGQSITISCTGTSSDVGNYNHVSWYQQHPDKAPKLMIYDVNKRPSGISNRFSGSKSGNTASLTISGLQAEDEADYYCCSYAGSSTWVFGGGTKLTVL | 457000 M⁻¹ s⁻¹ |  |
| CL-141790 (antibody, V domains shown, human IgG1, HEK (Expi293F) culture supernatant) VH: QVQLVQSGAEVKRPGASVKISCKASGYTFTNYAIHWVRQAPGQRLEWMGWINAGNGYTKYSQKFQGRVTITRDTSATSAYLELYSLISEDTAVYYCVRDEYYDSGSSNYYYYGMDVWGQGTTVTVSS VL: QSALTQPASVSGSPGQSITISCTGTSSDVGNYNHVSWYQQHPDKAPKLMIYDVSKRPSGVSNRFSGSKSGNTASLTISGLQAEDEADYYCCSYAGSSTWVFGGGTKLTVL | 428000 M⁻¹ s⁻¹ |  |
| Antibody 667 Fab (Fab, V domains shown, recombinant human Fab from CHO-3E7 cells, purified on nickel columns) VH: QVQLVQSGAEVKKPGASVKVSCRASGYTFTNYAMHWVRQAPGQRLEWMGWINAGNGYTKYSQKFQDRVTITRDTSATTAYMELSSLRSEDTAMYYCARDSFYDILSGPVYHYYGMDVWGQGTTVTVSS VL: QSALTQPDSVSGSPGQSITISCTGTSNDVGIYNHVSWYQQHPGKAPKLMIYDVNKRPSGISNRFSGSKSGDTASLTISGLQAEDEADYYCCSYAGSSAWVFGGGTKLTVL |  | Kd [2]: 31.6 nM; koff [2]: 0.00079 s⁻¹; kon [2]: 25000 M⁻¹ s⁻¹ |
